The values below come from article PMC5739296.

The experiment addresses Villin-1 (human (endogenous in HepG2)) (UniProt P09327). The experiment in a line: co-IP.
Sequence of UniProt P09327 (P09327 whole entry): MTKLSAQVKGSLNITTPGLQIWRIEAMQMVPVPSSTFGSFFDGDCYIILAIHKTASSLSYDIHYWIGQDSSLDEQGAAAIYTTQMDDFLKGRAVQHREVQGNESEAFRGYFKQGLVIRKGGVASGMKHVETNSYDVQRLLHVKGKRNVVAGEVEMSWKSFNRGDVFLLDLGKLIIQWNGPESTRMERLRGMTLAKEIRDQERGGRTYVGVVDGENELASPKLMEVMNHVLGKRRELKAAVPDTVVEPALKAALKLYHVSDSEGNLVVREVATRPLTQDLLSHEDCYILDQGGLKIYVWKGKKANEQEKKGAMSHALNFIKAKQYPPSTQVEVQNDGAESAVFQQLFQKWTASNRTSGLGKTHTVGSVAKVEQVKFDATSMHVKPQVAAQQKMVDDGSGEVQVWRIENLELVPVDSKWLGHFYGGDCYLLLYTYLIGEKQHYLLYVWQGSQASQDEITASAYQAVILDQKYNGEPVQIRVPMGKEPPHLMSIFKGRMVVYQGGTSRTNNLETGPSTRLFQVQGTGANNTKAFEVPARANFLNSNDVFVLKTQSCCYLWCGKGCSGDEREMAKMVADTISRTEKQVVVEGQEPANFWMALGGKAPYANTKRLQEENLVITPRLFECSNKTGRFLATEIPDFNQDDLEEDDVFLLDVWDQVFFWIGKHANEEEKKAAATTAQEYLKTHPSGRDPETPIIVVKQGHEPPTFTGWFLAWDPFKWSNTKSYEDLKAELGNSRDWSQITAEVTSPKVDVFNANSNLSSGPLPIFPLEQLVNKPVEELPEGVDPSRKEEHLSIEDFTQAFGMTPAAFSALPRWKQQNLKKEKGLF

Consider “ß-actin (actin, cytoplasmic 1, ACTB) (from UniProt P60709 1-375) (natural protein)”, for which the fold change of co-precipitated actin after fusion against control came out at 28.7 fold.
